Experiment [1] has as its target T1, human TL1A (human, UniProt O95150 72-251, limits assumed).
T1 construct: also called tumor necrosis factor-like cytokine 1A; TNFSF15
T1 sequence (looked up): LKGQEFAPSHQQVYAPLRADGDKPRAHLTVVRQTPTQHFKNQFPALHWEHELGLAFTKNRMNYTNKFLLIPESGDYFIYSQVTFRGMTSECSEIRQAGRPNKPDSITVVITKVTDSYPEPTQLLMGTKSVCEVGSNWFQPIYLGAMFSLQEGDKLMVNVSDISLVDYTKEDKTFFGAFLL
The experiment in a line: ELISA titration on plate-coated human TL1A, unpurified culture supernatant. For orientation: An ELISA detects its analyte on a solid surface through an enzyme-linked reagent.

For experiment [2], the target named is T2, human TL1A (Fitzgerald #30R-AT070) (human, UniProt O95150 72-251, limits assumed).
T2 construct: Coated on the ELISA plate at 1 ug/mL; also called TNFSF15
T2 sequence (looked up): T1 sequence (looked up)
The experiment in a line: ELISA titration, coated human TL1A, culture supernatant.

Numbering of substitutions follows the chain as printed. Where only a bound is given, the exact number is not on record here.

B1: A221 (antibody, IgG1, V domains shown)
VH: QVQLVQSGAEVKKPGASVKVSCKASGFDIQDTYMHWVKQRPGQGLEWMGRIDPASGHTKYDPKFQVRATITRDTSTSTAYLELSSLRSEDTAVYYCARSGGLPDVWGQGTTVTVSS
VL: EIVLTQSPGTLSLSPGERATLSCRASSSVSYMYWYQQKPGQAPRPLIYATSNLASGIPDRFSGSGSGTDFTLTISRLEPEDFAVYYCQQWEGNPRTFGGGTKLEIK
As for B1, the Kd (as a rule, the constant that tells how readily two partners part at equilibrium) in experiment [1] worked out at 51 pM.

B2: A46 (antibody, human IgG1, V domains shown)
VH: B1 VH with M48I, I70M
VL: B1 VL with L13A, L21M, L46W, I57V, F70Y, L77V, E91S
notes: human IgG1/kappa (pFuse vectors), culture supernatant
B2: binding in experiment [2] was put at a Kd of 63 pM.

B3: A45 (antibody, human IgG1, V domains shown)
VH: B1 VH with M48I, A68V
VL: B1 VL with L13A, L21M, L46W, I57V, F70Y, L77V, E91S
notes: as for B2
B3: in experiment [2], the Kd amounted to 85 pM.

B4: A55 (antibody, human IgG1, V domains shown)
VH: B1 VH with Q1E, M48I, R72T
VL: B1 VL with L13A, L21M, L46W, I57V, F70Y, L77V, E91S
notes: as for B2
Regarding B4, the Kd in experiment [2] was 91 pM.

B5: A43 (antibody, human IgG1, V domains shown)
VH: B1 VH with M48I
VL: B1 VL with L13A, L21M, L46W, I57V, F70Y, L77V, E91S
notes: as for B2
B5 gave an equilibrium dissociation constant (Kd) in experiment [2] of 51 pM.

B6: A56 (antibody, human IgG1, V domains shown)
VH: B1 VH with M48I, R72T
VL: B1 VL with L13A, L21M, L46W, F70Y, L77V, E91S
notes: as for B2
On to B6, for which the dissociation constant (Kd) in experiment [2] was determined as 116 pM.

B7: A48 (antibody, human IgG1, V domains shown)
VH: B1 VH with M48I, R72T
VL: B1 VL with L13A, L46W, I57V, F70Y, L77V, E91S
notes: as for B2
B7: the Kd in experiment [2] was determined as 76 pM.

B8: A51 (antibody, human IgG1, V domains shown)
VH: B1 VH with M48I, R72T
VL: B1 VL with L13A, L21M, L46W, I57V, F70Y, E91S
notes: as for B2
B8 gave an equilibrium dissociation constant (Kd) in experiment [2] of less than 50 pM.

B9: A49 (antibody, human IgG1, V domains shown)
VH: B1 VH with M48I, R72T
VL: B1 VL with L13A, L21M, P45L, I57V, F70Y, L77V, E91S
notes: as for B2
In experiment [2], B9 returned a Kd of 92 pM.

B10: A54 (antibody, human IgG1, V domains shown)
VH: B1 VH with Q1D, M48I, R72T
VL: B1 VL with L13A, L21M, L46W, I57V, F70Y, L77V, E91S
notes: as for B2
The molecule B10 displayed a Kd in experiment [2] of 83 pM.

B11: A47 (antibody, human IgG1, V domains shown)
VH: B1 VH with M48I, A68V, I70M
VL: B1 VL with L13A, L21M, L46W, I57V, F70Y, L77V, E91S
notes: as for B2
In experiment [2], B11 returned a Kd of 82 pM.

B12: A39 (antibody, human IgG1, V domains shown)
VH: B1 VH with M48I, R72T, L81M
VL: B1 VL with L13A, L21M, L46W, I57V, F70Y, L77V, E91S
notes: as for B2
Regarding B12, the Kd in experiment [2] turned out to be 125 pM.

B13: A50 (antibody, human IgG1, V domains shown)
VH: B1 VH with M48I, R72T
VL: B1 VL with L13A, L21M, L46W, I57V, L77V, E91S
notes: as for B2
In turn, B13 gave a Kd in experiment [2] of 19 pM. This Kd is about 6.6-fold lower than that of the molecule before.

B14: A52 (antibody, human IgG1, V domains shown)
VH: B1 VH with M48I, R72T
VL: B1 VL with L13A, L21M, L46W, I57V, E91S
notes: as for B2
Turning to B14, the affinity in experiment [2], expressed as Kd, was 27 pM.

B15: A42 (antibody, human IgG1, V domains shown)
VH: B1 VH with M48I, I70M, R72T
VL: B1 VL with L13A, L21M, L46W, I57V, F70Y, L77V, E91S
notes: as for B2
Take B15: the Kd in experiment [2] was less than 50 pM.

B16: A41 (antibody, human IgG1, V domains shown)
VH: B1 VH with M48I, A68V, R72T
VL: B1 VL with L13A, L21M, L46W, I57V, F70Y, L77V, E91S
notes: as for B2
In experiment [2], B16 gave a Kd of 16 pM.

B17: A40 (antibody, human IgG1, V domains shown)
VH: B1 VH with M48I, R72T, A79V, L81M
VL: B1 VL with L13A, L21M, L46W, I57V, F70Y, L77V, E91S
notes: as for B2
On to B17, for which, in experiment [2], the equilibrium dissociation constant (Kd) is less than 50 pM.

B18: A53 (antibody, human IgG1, V domains shown)
VH: B1 VH with M48I, A68V, I70M, R72T
VL: B1 VL with L13A, L21M, L46W, I57V, F70Y, L77V, E91S
notes: as for B2
For B18, the affinity in experiment [2], expressed as Kd, was 126 pM. In other words, the sub-nanomolar range.

B19: A179 (antibody, IgG1, V domains shown)
VH: B1 VH with R40A, D52E, T58I, V66G, I70M, A79V, L81M, V105W
VL: B1 VL
Take B19: binding in experiment [1] was characterised by a dissociation constant (Kd) of 79 pM.

B20: A171 (antibody, IgG1, V domains shown)
VH: B1 VH with K38R, R40A, T58I, V66G, R72T, A79V, L81M, V105W
VL: B1 VL with L46W
For B20, the Kd in experiment [1] stood at 50 pM.

B21: A176 (antibody, IgG1, V domains shown)
VH: B1 VH with K38R, R40A, T58I, V66G, A68V, I70M, L81M, V105W
VL: B1 VL
In experiment [1], B21 displayed a dissociation constant (Kd) of 48 pM.

B22: A175 (antibody, IgG1, V domains shown)
VH: B1 VH with R40A, T58I, V66G, A68V, I70M, A79V, L81M, V105W
VL: B1 VL
The molecule B22 registered an equilibrium dissociation constant (Kd) in experiment [1] of 45 pM.

B23: A174 (antibody, IgG1, V domains shown)
VH: B1 VH with K38R, R40A, D52E, T58I, V66G, I70M, L81M, V105W
VL: B1 VL with L46W
In the case of B23, binding in experiment [1] was put at a Kd of 43 pM.

B24: A178 (antibody, IgG1, V domains shown)
VH: B1 VH with K38R, R40A, T58I, V66G, I70M, A79V, L81M, V105W
VL: B1 VL
Turning to B24, the Kd in experiment [1] stood at 43 pM. This counts as picomolar.

B25: A180 (antibody, IgG1, V domains shown)
VH: B1 VH with K38R, R40A, D52E, T58I, V66G, I70M, L81M, V105W
VL: B1 VL
In turn, B25 returned a Kd in experiment [1] of 58 pM.

B26: A157 (antibody, IgG1, V domains shown)
VH: B1 VH with A68V, A79V
VL: B1 VL with P45L, E91K
With B26, the Kd in experiment [1] was 69 pM.

B27: A167 (antibody, IgG1, V domains shown)
VH: B1 VH with M48I, A68V
VL: B1 VL with L46W
B27 had a Kd in experiment [1] of 42 pM.

B28: A173 (antibody, IgG1, V domains shown)
VH: B1 VH with R40A, D52E, T58I, V66G, I70M, A79V, L81M, V105W
VL: B1 VL with L46W
In experiment [1], B28 returned a dissociation constant (Kd) of 40 pM.

B29: A161 (antibody, IgG1, V domains shown)
VH: B1 VH with K38R, A68V, R72T, A79V
VL: B1 VL with P45L, E91K
B29 displayed a dissociation constant (Kd) in experiment [1] of 72 pM. This Kd is about 1.8-fold higher than that of the molecule before.

B30: A170 (antibody, IgG1, V domains shown)
VH: B1 VH with K38R, R40A, T58I, V66G, A68V, I70M, L81M, V105W
VL: B1 VL with L46W
As for B30, the equilibrium dissociation constant (Kd) in experiment [1] was 49 pM.

B31: A172 (antibody, IgG1, V domains shown)
VH: B1 VH with K38R, R40A, T58I, V66G, I70M, A79V, L81M, V105W
VL: B1 VL with L46W
In experiment [1], B31 had a Kd of 40 pM.

B32: A168 (antibody, IgG1, V domains shown)
VH: B1 VH with M48I, I70M
VL: B1 VL with L46W
On to B32, for which the Kd in experiment [1] stood at 62 pM.

B33: A169 (antibody, IgG1, V domains shown)
VH: B1 VH with R40A, T58I, V66G, A68V, I70M, A79V, L81M, V105W
VL: B1 VL with L46W
B33 came in with a Kd in experiment [1] of 47 pM.

B34: A166 (antibody, IgG1, V domains shown)
VH: B1 VH with M48I, A68V, I70M, R72T
VL: B1 VL with L46W
As to B34, the dissociation constant Kd in experiment [1] is 57 pM.

B35: A177 (antibody, IgG1, V domains shown)
VH: B1 VH with K38R, R40A, T58I, V66G, R72T, A79V, L81M, V105W
VL: B1 VL
In experiment [1], B35 returned a dissociation constant (Kd) of 52 pM.

B36: A156 (antibody, IgG1, V domains shown)
VH: B1 VH with K38R, R40A, D52E, T58I, I70M, A79V, L81M, V105W
VL: B1 VL with L46W
Turning to B36, the Kd in experiment [1] turned out to be 94 pM.

B37: A159 (antibody, IgG1, V domains shown)
VH: B1 VH with A68V, L81M
VL: B1 VL with P45L, E91K
Molecule B37 had an equilibrium dissociation constant (Kd) in experiment [1] of 69 pM.

B38: A160 (antibody, IgG1, V domains shown)
VH: B1 VH with A68V, I70M
VL: B1 VL with P45L, E91K
The molecule B38 showed a Kd in experiment [1] of 94 pM. The Kd values of the last two molecules are within 1.5-fold of each other.

B39: A164 (antibody, IgG1, V domains shown)
VH: B1 VH with K38R, A68V, I70M, R72T
VL: B1 VL with P45L, E91K
Regarding B39, in experiment [1], the Kd came to 58 pM. This Kd lies about 1.6-fold lower than the previous one.

B40: A158 (antibody, IgG1, V domains shown)
VH: B1 VH with A68V, A79V, L81M
VL: B1 VL with P45L, E91K
The molecule B40 returned an equilibrium dissociation constant (Kd) in experiment [1] of 66 pM.

B41: A162 (antibody, IgG1, V domains shown)
VH: B1 VH with K38R, A68V, R72T, A79V, L81M
VL: B1 VL with P45L, E91K
As to B41, binding in experiment [1] was put at a Kd of 75 pM.

B42: A163 (antibody, IgG1, V domains shown)
VH: B1 VH with K38R, A68V, R72T, L81M
VL: B1 VL with P45L, E91K
For the molecule B42, the dissociation constant Kd in experiment [1] is 51 pM.

B43: A165 (antibody, IgG1, V domains shown)
VH: B1 VH with K38R, R40A, M48I, R72T
VL: B1 VL with L46W
With B43, in experiment [1], the Kd came out at 59 pM.

Values taken from patent publication US20260216326A1 (PROMETHEUS BIOSCIENCES, published 2026).
